B1: 2A1-HC-Cys387ins: 2A1 antibody with cysteine inserted at heavy chain position 387 (SEQ ID NO: 42) (antibody)
heavy: DVQLQESGPSLVKPSQSLSLTCTVTGYSITSDFAWNWIRQFPGNKLEWMGYISYSGNTRYNPSLKSRISITRDTSKNQFFLQLNSVTIEDTATYYCVTAGRGFPYWGQGTLVTVSAASTKGPSVFPLAPSSKSTSGGTAALGCLVKDYFPEPVTVSWNSGALTSGVHTFPAVLQSSGLYSLSSVVTVPSSSLGTQTYICNVNHKPSNTKVDKRVEPKSCDKTHTCPPCPAPEFLGGPSVFLFPPKPKDTLMISRTPEVTCVVVDVSHEDPEVKFNWYVDGVEVHNAKTKPREEQYNSTYRVVSVLTVLHQDWLNGKEYKCKVSNKALPAPIEKTISKAKGQPREPQVYTLPPSRDELTKNQVSLTCLVKGFYPSDIAVEWESNGQPENNCYKTTPPVLDSDGSFFLYSKLTVDKSRWQQGNVFSCSVMHEALHNHYTQKSLSLSPG
light: DILMTQSPSSMSVSLGDTVSITCHSSQDINSNIGWLQQRPGKSFKGLIYHGTNLDDEVPSRFSGSGSGADYSLTISSLESEDFADYYCVQYAQFPWTFGGGTKLEIKRTVAAPSVFIFPPSDEQLKSGTASVVCLLNNFYPREAKVQWKVDNALQSGNSQESVTEQDSKDSTYSLSSTLTLSKADYEKHKVYACEVTHQGLSSPVTKSFNRGEC
B2: 2A1-HC-Cys410ins: 2A1 antibody with cysteine inserted at heavy chain position 410 (SEQ ID NO: 44) (antibody)
heavy: DVQLQESGPSLVKPSQSLSLTCTVTGYSITSDFAWNWIRQFPGNKLEWMGYISYSGNTRYNPSLKSRISITRDTSKNQFFLQLNSVTIEDTATYYCVTAGRGFPYWGQGTLVTVSAASTKGPSVFPLAPSSKSTSGGTAALGCLVKDYFPEPVTVSWNSGALTSGVHTFPAVLQSSGLYSLSSVVTVPSSSLGTQTYICNVNHKPSNTKVDKRVEPKSCDKTHTCPPCPAPEFLGGPSVFLFPPKPKDTLMISRTPEVTCVVVDVSHEDPEVKFNWYVDGVEVHNAKTKPREEQYNSTYRVVSVLTVLHQDWLNGKEYKCKVSNKALPAPIEKTISKAKGQPREPQVYTLPPSRDELTKNQVSLTCLVKGFYPSDIAVEWESNGQPENNYKTTPPVLDSDGSFFLYSKLTVDCKSRWQQGNVFSCSVMHEALHNHYTQKSLSLSPG
light: B1 light

Columns and labels:
[1] = test system: EGFRwt-overexpressing human skin squamous cell carcinoma cell line A431; assay: MTS cytotoxicity (cell viability) assay, A431; format: cell-based; details: antibodies; 72 hours
Protocol: (§1) TDC cytotoxic activity was determined via the following experimental procedure: TDC was added to EGFR-overexpressing or […]-expressing human tumor cell culture medium, and cell viability was determined after 72 hours of cell culture. Cell-based in vitro experiments were used to determine cell viability, cytotoxicity and programmed cell death induced by TDC constituted by the present invention.
(§2) In vitro efficacy of antibody-toxin conjugates was determined via a cell proliferation assay. A CellTiter ^96® AqueousOne Solution Cell was Proliferation Assay purchased commercially from Promega Corp. (Madison, WI). CellTiter ^96® Aqueous One Solution Cell Proliferation Assay (a) is a colorimetric method used to detect the number of living cells in cell proliferation and cytotoxicity experiments. The above reagent contains the novel tetrazole compound [3-(4,5-dimethylthiazol-2-yl)-5-(3-carboxymethoxyphenyl)-2-(4-sulfophenyl)-2H-tetrazolium, inner salt; MTS) as well as an electronic coupling agent (phenazine ethosulfate; PES). […] This convenient “single solution” model is an improvement on the first generation of the CellTiter ^96® Aqueous Assay, in which the electronic coupling agent PMS was supplied separately from the MTS solution. MTS (Owen's reagent) is reduced by cellular organisms into a colored formazan product, which can be directly dissolved in culture medium (FIG. 1). This conversion is likely facilitated by NADPH NADH produced by dehydrogenase present in metabolically active cells. For the assay, a small amount of CellTiter ^96® Aqueous One Solution Reagent is added directly to the medium present in the wells of the culture plate, after which incubation is performed for 1 to 4 hours, followed by reading of the absorbance value at 490 nm using a microplate reader.
(§3) The amount of formazan product detected at 490 nm is proportional to the number of viable cells in culture. Because the formazan product of MTS is soluble in tissue culture medium, CellTiter ^96® Aqueous One Solution Assay requires fewer steps than the MTT or INT methods. A431 (EGFR-overexpressing cells) and U87-[…] (an […] mutant stable cell line) were used in the present invention as an investigative system for performing in vitro efficacy assays. In 96-well plates, cells were plated at 6000 cells/well and 24 hours later, antibody spiking was carried out. […] Cell viability was assayed via MTS 72 hours after treatment.

[2] = test system: EFGRvIII-overexpressing human glioma cell line U87-EGFRvIII; assay: MTS cytotoxicity (cell viability) assay, U87-EGFRvIII; format: cell-based; details: antibodies; 72 hours; read-out: IC50, U87MG-EGFRvIII (MTS)
Protocol: as §1, §2, §3

[3] = target: T1, Recombinant EGFRVIII-His*6 antigen (Homo sapiens, UniProt P00533, DELINS30-297G); assay: ELISA relative affinity for EGFRvIII; format: binding; details: EGFRvIII-coated plates, A450, read-out: EC50 (nM), mutant antibody affinity
T1 construct: His*6
Text: Insertion Mutation Modification and Parent Antibody 2A1 for EGFRvIII • ELISA was used to compare the relative affinities of 2A1-LC-Cys110ins-mc-vc-PAB-MMAE TDC, 2A1-LC-Cys111ins-mc-vc-PAB-MMAE TDC, 2A1-LC-Cys142ins-mc-vc-PAB-MMAE TDC, 2A1-HC-Cys254ins-mc-vc-PAB-MMAE TDC, 2A1-HC-Cys255ins-mc-vc-PAB-MMAE TDC, 2A1-HC-Cys258ins-mc-vc-PAB-MMAE TDC, 2A1-HC-Cys259ins-mc-vc-PAB-MMAE TDC, 2A1-HC-Cys354ins-mc-vc-PAB-MMAE TDC, 2A1-HC-Cys355ins-mc-vc-PAB-MMAE TDC, 2A1-HC-Cys357ins-mc-vc-PAB-MMAE TDC, 2A1-HC-Cys378ins-mc-vc-PAB-MMAE TDC, 2A1-HC-Cys379ins-mc-vc-PAB-MMAE TDC, 2A1-HC-Cys386ins-mc-vc-PAB-MMAE TDC, 2A1-HC-Cys387ins-mc-vc-PAB-MMAE TDC, 2A1-HC-Cys410ins-mc-vc-PAB-MMAE TDC, and 2A1 for EGFRvIII. The specific process used was as follows:
Recombinant […]-His*6 antigen was used to coat plates; fish skin gelatin was used as a seal; dilution of each insertion mutant antibody was performed separately, up to a maximum concentration 10 μg/ml and a 4-fold gradient dilution was performed for a total of 11 concentrations; HRP-labeled secondary antibodies were used for incubation; TMB was used for development and absorption detection was performed at 450 nm.

Molecule | IC50 [1] | IC50 [2] | EC50 [3]
B1 | > 10 µM | > 10 µM | 0.0452 nM
B2 | > 10 µM | > 10 µM | 0.042 nM
